The target in experiment [1] is T1, recombinant human IL22R1 (human IL22R ECD) (human) (UniProt Q8N6P7).
T1 sequence (biotinylated in the ELISA of Table 4, looked up): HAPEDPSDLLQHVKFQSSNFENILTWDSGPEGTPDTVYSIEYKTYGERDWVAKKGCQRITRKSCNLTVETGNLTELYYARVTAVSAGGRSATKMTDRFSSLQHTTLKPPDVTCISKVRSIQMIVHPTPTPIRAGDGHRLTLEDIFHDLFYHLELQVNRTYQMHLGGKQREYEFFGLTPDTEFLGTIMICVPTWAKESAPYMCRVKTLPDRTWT
Put plainly: ELISA, mAb coated at 100 ng/ml, biotinylated human IL22R ECD at 100 ng/ml, streptavidin-HRP. For orientation: ELISA stands for enzyme-linked immunosorbent assay.

Experiment [2] has as its target T2, recombinant mouse IL22R1 (mouse IL22R ECD) (mouse) (UniProt Q80XZ4).
T2 sequence (biotinylated in the ELISA of Table 4, looked up): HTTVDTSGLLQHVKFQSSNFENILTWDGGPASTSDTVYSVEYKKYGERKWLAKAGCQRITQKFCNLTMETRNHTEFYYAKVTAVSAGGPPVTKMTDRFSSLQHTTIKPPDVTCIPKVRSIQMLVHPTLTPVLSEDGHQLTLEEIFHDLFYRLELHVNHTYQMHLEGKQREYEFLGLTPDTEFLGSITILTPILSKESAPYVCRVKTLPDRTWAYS
Put plainly: ELISA, mAb coated at 100 ng/ml, biotinylated mouse IL22R ECD at 100 ng/ml, streptavidin-HRP.

Experiment [3] has as its target T2, recombinant mouse IL22R1 (mouse IL22R ECD) (mouse). Put plainly: Biacore, immobilized mouse IL22R ECD.
In another experiment the target is cyno IL22R ECD (cyno). The experiment is described as follows: ELISA, mAb coated at 100 ng/ml, biotinylated cyno IL22R ECD at 100 ng/ml, streptavidin-HRP.
For experiment [4], the target named is T3, rhesus IL22R ECD (rhesus) (UniProt G7MHN4).
T3 sequence (chain, biotinylated): T1 sequence (biotinylated in the ELISA of Table 4, looked up) with S18N, L73H, S99N, T105A, S115P, K167E, A194S, E196K, K205R
Put plainly: ELISA, mAb coated at 100 ng/ml, biotinylated rhesus IL22R ECD at 2 ng/ml, streptavidin-HRP.

The target in experiment [5] is T3, rhesus IL22R ECD (rhesus). Put plainly: ELISA, mAb coated at 100 ng/ml, biotinylated rhesus IL22R ECD at 100 ng/ml, streptavidin-HRP.
The target of experiment [6] is T1, recombinant human IL22R1 (human IL22R ECD) (human). The experiment is described as follows: ELISA, mAb coated at 100 ng/ml, biotinylated human IL22R ECD at 2 ng/ml, streptavidin-HRP.
The target in experiment [7] is T2, recombinant mouse IL22R1 (mouse IL22R ECD) (mouse). The experiment is described as follows: ELISA, mAb coated at 100 ng/ml, biotinylated mouse IL22R ECD at 2 ng/ml, streptavidin-HRP.
The target in experiment [8] is T1, recombinant human IL22R1 (human IL22R ECD) (human). Put plainly: Biacore, immobilized human IL22R ECD. For orientation: Surface plasmon resonance follows binding to a sensor surface in real time, without labels.
Experiment [9] has as its target T4, recombinant human IL22R1 (human IL22R ECD) (human, UniProt Q8N6P7 16-228, biotinylated in the ELISA of Table 4).
T4 construct: extracellular domain; also called hIL22R; human Interleukin 22 receptor
T4 sequence (looked up): T1 sequence (biotinylated in the ELISA of Table 4, looked up)
The experiment is described as follows: Biacore, hIL22R.

In experiment [10] the target is T5, human IL22R on BW-hIL22R cells (human, UniProt Q8N6P7 16-574).
T5 sequence (looked up): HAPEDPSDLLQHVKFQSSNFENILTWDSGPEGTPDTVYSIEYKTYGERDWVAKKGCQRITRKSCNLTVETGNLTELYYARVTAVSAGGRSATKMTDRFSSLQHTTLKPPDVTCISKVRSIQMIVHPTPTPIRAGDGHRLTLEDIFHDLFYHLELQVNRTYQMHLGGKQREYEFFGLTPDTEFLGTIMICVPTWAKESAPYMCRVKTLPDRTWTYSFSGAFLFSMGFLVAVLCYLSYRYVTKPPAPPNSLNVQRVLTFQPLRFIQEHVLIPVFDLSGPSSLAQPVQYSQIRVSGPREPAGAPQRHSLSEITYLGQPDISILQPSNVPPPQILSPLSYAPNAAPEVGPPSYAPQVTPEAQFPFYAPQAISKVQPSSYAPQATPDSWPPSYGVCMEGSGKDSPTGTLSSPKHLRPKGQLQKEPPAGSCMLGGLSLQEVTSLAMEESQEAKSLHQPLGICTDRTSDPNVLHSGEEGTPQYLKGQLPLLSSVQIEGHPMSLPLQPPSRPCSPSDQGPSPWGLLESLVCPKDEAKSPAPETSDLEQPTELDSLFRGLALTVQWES
Put plainly: cell-based or functional assay.

The target in experiment [11] is T5, human IL22R on BW-hIL22R cells. Put plainly: cell-based or functional assay. This is another data set of the same source.
For experiment [12], the target named is T6, recombinant mouse IL22R1 (mouse IL22R ECD) (mouse, UniProt Q80XZ4 16-230, biotinylated in the ELISA of Table 4).
T6 construct: extracellular domain; also called mIL22R; mIL22R1
T6 sequence (looked up): T2 sequence (biotinylated in the ELISA of Table 4, looked up)
The experiment is described as follows: Biacore, mIL22R.

Experiment [13] addresses T7, mouse IL22R on BaF3-mIL22R cells (mouse, UniProt Q80XZ4 16-581).
T7 sequence (looked up): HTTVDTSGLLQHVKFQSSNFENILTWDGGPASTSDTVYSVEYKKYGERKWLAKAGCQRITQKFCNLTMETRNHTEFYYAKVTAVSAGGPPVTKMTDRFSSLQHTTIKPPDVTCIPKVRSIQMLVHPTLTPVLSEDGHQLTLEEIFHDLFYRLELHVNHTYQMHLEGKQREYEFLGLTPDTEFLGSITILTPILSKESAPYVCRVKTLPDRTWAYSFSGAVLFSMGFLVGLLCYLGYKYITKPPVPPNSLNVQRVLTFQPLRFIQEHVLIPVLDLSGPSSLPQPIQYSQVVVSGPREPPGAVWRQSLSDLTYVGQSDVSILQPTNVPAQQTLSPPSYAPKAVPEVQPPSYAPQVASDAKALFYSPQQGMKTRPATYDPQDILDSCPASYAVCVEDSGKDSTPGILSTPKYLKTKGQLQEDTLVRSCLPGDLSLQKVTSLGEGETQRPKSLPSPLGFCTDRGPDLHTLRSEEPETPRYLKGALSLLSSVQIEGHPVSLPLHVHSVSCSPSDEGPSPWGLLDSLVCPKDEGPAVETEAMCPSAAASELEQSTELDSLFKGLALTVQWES
Put plainly: cell-based or functional assay.

In experiment [14] the target is T6, recombinant mouse IL22R1 (mouse IL22R …). Put plainly: screening of clones selected on mouse IL22R; method not detailed.

Residue numbers refer to the chain shown, from its start.

B1: 205A9 (antibody, part only; not given: parental heavy chain variable domain, V domains shown, part only)
VL: HSAVTQPSAVSVSLGQTARITCQGGNFGSYYASWYQQKPGQAPVLVIYDDDRRPSGIPERFSGSSSGGRSTLTISGAQSGDEGDYYCQSADLSGNPVFGGGTHLTVL
Broadly, the Kd is the free concentration of one partner at which half of the binding sites on the other are occupied at equilibrium, for simple one-to-one binding. Usually koff stands for the first-order rate constant of dissociation. By kon is commonly meant a measure of how fast the partners come together. As for B1, the Absorption at 620 nm (relative absorption units) was found to be 2.57 in experiment [1]; 2.36 in experiment [2]; 2.18 with cyno IL22R ECD (cyno); 1.97 in [4]; 2.59 in experiment [5]; 1.03 in [6]. For the same molecule, the Absorption at 620 nm (relative absorption units) in experiment [7] came out at 1.86. In addition, the results for the Kd in experiment [3] and in [8] were 1.8 nM and 0.42 nM, respectively. In addition, the koff in experiment [3] came out at 0.00048 s⁻¹; in experiment [8] it was 0.00028 s⁻¹. Further, the kon in [3] came out at 260000 M⁻¹ s⁻¹; in experiment [8] it was 670000 M⁻¹ s⁻¹.

B2: 170B2 (antibody, V domains shown)
VH: EVQLVESGGGLVQPGGSLRLSCAASGFTFSSSWMYWVRQAPGKGLEFVSVINTRSGITHYVESVKGRFTISTDNAKNTLFLQMNSLKSEDTAVYYCATRIQGLIDYWGQGTQVTVSS
VL: DIVMTQSPSSLSVSLGDRVTITCQASQSIGSVNALAWYQQKPGQSLKLLIHGASRLQTGVPSRFSGSGSGTSFTLAISGVEAEDLATYYCLQDYAWPLTFGQGTKVELK
notes: Llama-derived parental clone; also called VH_170B2; VK_170B2
With B2, the Kd in experiment [9] is 0.12 nM. Further, the “IC50 pM (potency on human IL22R expressing cells)” value (“IC50 pM” below) in experiment [10] is about 106 pM. In experiment [11], the “Potency (pM) BW-hIL22R” value worked out at 106 pM.

B3: 197G10 (antibody, V domains shown)
VH: B2 VH
VL: DIQMTQSPSSMSASLGDSVTISCQASENIGTQLFWYQQNAGQPPKLLIYGASRLQTGVPSRFSGSGSGTTFTLTISGVETGDLATYYCLQDYSWPLTFGQGTKVELK
notes: Vkappa-shuffled clone of 170B2 (keeps the 170B2 VH-CH1); also called VK_197G10
For the molecule B3, the Kd in experiment [9] was found to be 0.29 nM; in [12], 0.45 nM. In addition, in [10], the “IC50 pM” value worked out at 124 pM. Also, the “Potency (pM) BW-hIL22R” value in experiment [11] worked out at 124 pM. The “Potency (pM) BaF3-mIL22R” value in experiment [13] stood at 790 pM.

B4: 196C2 (antibody, V domains shown)
VH: B2 VH
VL: DIQMTQSPSSLSASLGDRVTITCQASQSISSLLAWYQQKPGQAPKLLIYGASRLQTGVPSRFSGSGSGTSFTLTISGVEAEDLATYYCLQDYSWPLTFGQGTKVELK
notes: Vkappa-shuffled clone of 170B2 (keeps the 170B2 VH-CH1); also called VK_196C2
Turning to B4, the results for the Kd in [9] and in experiment [12] were 0.08 nM and 0.45 nM, respectively. In addition, the “IC50 pM” value in experiment [10] was found to be 67 pM. In [11], the “Potency (pM) BW-hIL22R” value worked out at 67 pM. Further, the “Potency (pM) BaF3-mIL22R” value in experiment [13] worked out at 870 pM.

B5: 198G11 (antibody, V domains shown)
VH: B2 VH
VL: DIVMTQSPSSLSASLGDRVTVTCQASQSIRSSLNWYQQKPGQAPKLLIYGASRLRIGVPSRFSGSASGTSFTLTISGVESEDLATYYCLQDYTWPLSFGSGTRLEIK
notes: Vkappa-shuffled clone of 170B2 (keeps the 170B2 VH-CH1); also called VK_198G11
In the case of B5, the “IC50 pM” value in [10] came out at 132 pM. Further, the binding result in experiment [14] is on record as “binds”.

B6: 198C9 (antibody, V domains shown)
VH: B2 VH
VL: DIVMTQSPSSLSASLGDRVTITCQATQSISTFLSWYQQKPGQTPKLLVYGASRLQTGVPSRFSGTGSGTKFTLTISGVEAEDLASYFCLQDYSWPLTFGQGTKVELK
notes: Vkappa-shuffled clone of 170B2 (keeps the 170B2 VH-CH1); also called VK_198C9
As to B6, the “IC50 pM” value in experiment [10] worked out at 89 pM. Further, the binding result in experiment [14] was “binds”.

B7: 198B7 (antibody, V domains shown)
VH: B2 VH
VL: B4 VL with L32Q
notes: Vkappa-shuffled clone of 170B2 (keeps the 170B2 VH-CH1); also called VK_198B7
Turning to B7, in experiment [14], the binding result is on record as “binds”.

B8: 197D3 (antibody, V domains shown)
VH: B2 VH
VL: B4 VL with I21V, S30R, L32S, A34N, Q55R, T56I, G66A, D91E, S93A
notes: Vkappa-shuffled clone of 170B2 (keeps the 170B2 VH-CH1); also called VK_197D3
With B8, the Kd in experiment [9] amounted to 0.089 nM; in experiment [12], 0.37 nM. Also, the “IC50 pM” value in experiment [10] amounted to 57 pM. The “Potency (pM) BW-hIL22R” value in experiment [11] came to 57 pM.

B9: 197B7 (antibody, V domains shown)
VH: B2 VH
VL: B4 VL with Q3V, S30R, L32F, L33I, A34D, A51T, Q55E, S65T
notes: Vkappa-shuffled clone of 170B2 (keeps the 170B2 VH-CH1); also called VK_197B7
For the molecule B9, the Kd was determined as 0.038 nM in experiment [9] and 0.39 nM in [12]. The “IC50 pM” value in [10] worked out at 69 pM. In addition, the “Potency (pM) BW-hIL22R” value in experiment [11] amounted to 69 pM. The “Potency (pM) BaF3-mIL22R” value in experiment [13] stood at 160 pM.

B10: 196F8 (antibody, V domains shown)
VH: B2 VH
VL: B4 VL with L32M, K45N, G66R
notes: Vkappa-shuffled clone of 170B2 (keeps the 170B2 VH-CH1); also called VK_196F8
Regarding B10, the Kd was 0.01 nM in experiment [9] and 0.31 nM in experiment [12]. Moreover, in experiment [10], the “IC50 pM” value is 87 pM. In addition, in [11], the “Potency (pM) BW-hIL22R” value amounted to 87 pM. Further, the “Potency (pM) BaF3-mIL22R” value in experiment [13] was 105 pM.

The values are drawn from patent US20150203840A1 (ARGEN X N V, published 2015).
